In general, stoichiometry N refers to the number of molecules, sites or subunits per partner or assembly.

For test [1], the target named is human Nox5β CaM-binding domain (CMBD) peptide, residues 671-689 (human). Description: ITC. Background: ITC needs no label: the signal is the heat of the interaction.
For test [2], the target named is MBP-fused human Nox5β dehydrogenase domain residues 528-719 (human) (UniProt Q96PH1). Nature of the test: ITC.
Test [3] addresses MBP-fused human Nox5β dehydrogenase domain residues 665-719 (human) (UniProt Q96PH1). Nature of the test: ITC.
In test [4] the target is MBP-fused human Nox5β dehydrogenase domain residues 584-719 (human) (UniProt Q96PH1). Description: ITC.
Test [5] addresses MBP-fused human Nox5β dehydrogenase domain residues 605-719 (human) (UniProt Q96PH1). Description: ITC.
Test [6] has as its target N-terminal Dansyl-labeled human Nox5β CMBD peptide (human). Nature of the test: other fluorescence titration.
Test [7] addresses human Nox5β CaM-binding domain (CMBD) peptide, residues 671-689 (human). Nature of the test: other fluorescence titration.
Test [8] has the same target. Description: fluorescence polarisation.

Sequence of MBP-fused human Nox5β dehydrogenase domain residues 605-719 (human) (Q96PH1 651-765): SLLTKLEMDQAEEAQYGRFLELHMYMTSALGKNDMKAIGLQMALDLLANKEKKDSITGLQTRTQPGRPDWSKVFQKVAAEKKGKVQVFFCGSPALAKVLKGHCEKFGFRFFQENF
Sequence of MBP-fused human Nox5β dehydrogenase domain residues 584-719 (human) (Q96PH1 630-765): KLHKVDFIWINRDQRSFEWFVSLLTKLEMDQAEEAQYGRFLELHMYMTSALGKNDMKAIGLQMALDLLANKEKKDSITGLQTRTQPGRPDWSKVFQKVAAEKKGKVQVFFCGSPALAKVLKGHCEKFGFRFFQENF
Sequence of MBP-fused human Nox5β dehydrogenase domain residues 528-719 (human) (Q96PH1 574-765): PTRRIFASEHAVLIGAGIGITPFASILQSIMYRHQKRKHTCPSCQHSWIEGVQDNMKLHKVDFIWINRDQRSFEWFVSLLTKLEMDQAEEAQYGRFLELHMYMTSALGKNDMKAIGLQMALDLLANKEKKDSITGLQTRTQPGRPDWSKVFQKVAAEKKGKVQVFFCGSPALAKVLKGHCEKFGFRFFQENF
Sequence of MBP-fused human Nox5β dehydrogenase domain residues 665-719 (human) (Q96PH1 711-765): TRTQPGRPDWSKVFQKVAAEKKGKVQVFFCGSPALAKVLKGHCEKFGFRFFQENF

Regarding “recombinant 6xHis-tagged calmodulin (from UniProt P0DP23 1-149) (natural protein)”, the dH (per mole protein) in test [1] is -32.8 kJ/mol. For the same substance, the stoichiometry N in test [1] is 0.521. Besides, the stoichiometry N ([peptide]/Protein]) in test [1] was 1.79; in test [2], 1.18; in test [3], 1.15; in test [4] it was 1.04; in test [5] it was 1.15; in test [6], 2.11. Besides, the stoichiometry N ([peptide]/Protein]) in test [7] is 2.1; in test [8] it was 1.91. Moreover, the dH in test [2] is -79.3 kJ/mol; in test [3], -34.4 kJ/mol; in test [4], -70.1 kJ/mol; in test [5], -61.9 kJ/mol.

The values are drawn from article PMC8777244.
